Measurements taken from paper PMC3897551.

Molecular target: tubulin dimers
Assay: MST

Sequence of tubulin dimers (P68363 whole entry, chain 1 of 2): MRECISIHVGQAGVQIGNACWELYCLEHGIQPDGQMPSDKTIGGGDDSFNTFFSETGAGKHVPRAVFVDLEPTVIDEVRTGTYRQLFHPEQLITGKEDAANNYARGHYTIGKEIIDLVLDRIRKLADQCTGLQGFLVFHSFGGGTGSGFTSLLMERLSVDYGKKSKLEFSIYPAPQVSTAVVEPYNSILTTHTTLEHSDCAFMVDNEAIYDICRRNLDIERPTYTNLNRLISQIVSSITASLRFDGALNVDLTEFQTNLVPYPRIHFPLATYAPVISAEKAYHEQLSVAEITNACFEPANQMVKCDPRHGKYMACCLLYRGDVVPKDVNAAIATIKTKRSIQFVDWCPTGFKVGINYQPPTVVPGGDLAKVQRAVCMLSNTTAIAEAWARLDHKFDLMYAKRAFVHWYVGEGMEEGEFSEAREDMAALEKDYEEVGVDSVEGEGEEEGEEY
Sequence of tubulin dimers (A8K068 whole entry, chain 2 of 2, further chain): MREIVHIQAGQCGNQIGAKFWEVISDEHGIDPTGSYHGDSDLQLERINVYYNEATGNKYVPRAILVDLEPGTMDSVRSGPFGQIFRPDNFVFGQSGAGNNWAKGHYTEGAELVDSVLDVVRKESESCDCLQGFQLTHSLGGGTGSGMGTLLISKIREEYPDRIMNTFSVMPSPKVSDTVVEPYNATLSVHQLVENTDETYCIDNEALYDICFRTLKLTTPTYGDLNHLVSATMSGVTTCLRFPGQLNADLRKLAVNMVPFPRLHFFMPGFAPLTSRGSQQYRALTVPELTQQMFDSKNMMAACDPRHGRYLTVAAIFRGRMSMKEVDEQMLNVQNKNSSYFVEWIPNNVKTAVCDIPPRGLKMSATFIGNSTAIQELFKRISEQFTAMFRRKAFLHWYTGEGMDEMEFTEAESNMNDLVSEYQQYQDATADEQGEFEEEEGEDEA

B1: GMΔNT phosphorylated by Aurora B/INCENP, Q91636 187-730 (domain or fragment)
chain: GRNNQGRRKSNIVKEMEKMKNKREEQRAQNYERRMKRAQDYDTSVPNWEFGKMIKEFRATMDCHRISMADPAEEHRICVCVRKRPLNKQELSKKEIDIISVPSKNIVLVHEPKLKVDLTKYLENQAFRFDFSFDETATNEVVYRFTARPLVQSIFEGGKATCFAYGQTGSGKTHTMGGDFSGKSQNVSKGVYAFASRDVFLLLDQPRYKHLDLDVFVTFFEIYNGKVFDLLNKKTKLRVLEDAKQEVQVVGLLEKQVISADDVFKMIEIGSACRTSGQTFANTSSSRSHACLQIILRRGSKLHGKFSLVDLAGNERGVDTASADRITRMEGAEINRSLLALKECIRALGQNKSHTPFRESKLTQILRDSFIGENSRTCMIAMLSPGFNSCEYTLNTLRYADRVKELSPQNAETNDDNLQMEDSGGSHASIEGLQLQDDFLLKDEELSTHNSFQDALNRVGELEDKAVDELRELVQKEPEWTNLLQMTEQPDYDLENFVMQAEYLIQERSKVLIALGDSINSLRLALQVEEQASKQISKKKRSNK
modifications: here or on the partner: phosphorylated by Aurora B/INCENP (S196 is retained in this region)
B1 was tested. Which fold increase in Kd against non-phosphorylated GMΔNT did it give?
Its fold increase in Kd against non-phosphorylated GMΔNT is 16 fold.
